From US20260256923, “NEW RECRUITMENT ELEMENT OF UBIQUITIN LIGASE AND USE THEREOF” (SHENZHEN LINGGENE BIOTECH CO., LTD., published 2026) come the findings set out here.

Series [1] has as its target Nucleolin (NCL) (Homo sapiens, UniProt P19338 P19338:2-710). In words: pulldown; 400 nM oligo, with MDM2, 4 C. To be noted: tags: ACROBiosystems NUL-H5253, label: 5'-biotin. The protocol:
(§1) 6 μg/mL recombinant human NCL and 6 μg/mL recombinant human MDM2 were mixed well and incubated at 4° C. for 7 h. Subsequently, 400 nM CRO, AS1411, or iSN04 labeled by biotin at the 5′ end was added, and the mixture was incubated at 4° C. for 6 h. Streptavidin agarose gel beads (purchased from cytiva, Cat. No.: 17511301) were added, and the mixture was further incubated at 4° C. overnight. The gel beads were washed 4 times with a TBST buffer, and an SDS-PAGE protein loading buffer (purchased from Beyotime, Cat. No.: P0015) was added. The mixture was heated to 100° C. and held for 10 min. After centrifugation, the supernatant was collected. The pull-down product was then detected by western blot assay.

For series [2], the target named is T1, MDM2 (Homo sapiens, UniProt Q00987 Q00987:1-491). Description: pulldown; NCL present. The settings on record: tags: R&D Systems E3-202-050; label: 5'-biotin. On the procedure: as §1
T1 sequence (Q00987 whole entry, one chain of several): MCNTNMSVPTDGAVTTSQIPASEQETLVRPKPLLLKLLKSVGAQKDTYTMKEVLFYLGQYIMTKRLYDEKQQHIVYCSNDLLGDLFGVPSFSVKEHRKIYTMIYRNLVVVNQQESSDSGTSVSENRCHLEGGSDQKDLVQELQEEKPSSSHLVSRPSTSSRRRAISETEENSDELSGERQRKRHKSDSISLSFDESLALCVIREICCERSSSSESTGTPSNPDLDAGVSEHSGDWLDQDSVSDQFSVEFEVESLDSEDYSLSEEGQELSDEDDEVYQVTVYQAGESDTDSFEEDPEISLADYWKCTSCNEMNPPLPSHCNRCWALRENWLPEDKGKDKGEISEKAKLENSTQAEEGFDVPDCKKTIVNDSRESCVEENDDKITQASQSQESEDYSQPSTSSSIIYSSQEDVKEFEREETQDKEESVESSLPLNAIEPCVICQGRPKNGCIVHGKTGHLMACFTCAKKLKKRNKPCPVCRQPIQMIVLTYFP
Series [3] has as its target T1, MDM2. Description: pulldown; NCL present; iSN04 blocks NCL-MDM2 interaction. The settings on record: tags: R&D Systems E3-202-050; label: 5'-biotin; weak G4 only with K+. The protocol: as §1

Chain of Nucleolin (NCL) (P19338 2-710, one chain of several): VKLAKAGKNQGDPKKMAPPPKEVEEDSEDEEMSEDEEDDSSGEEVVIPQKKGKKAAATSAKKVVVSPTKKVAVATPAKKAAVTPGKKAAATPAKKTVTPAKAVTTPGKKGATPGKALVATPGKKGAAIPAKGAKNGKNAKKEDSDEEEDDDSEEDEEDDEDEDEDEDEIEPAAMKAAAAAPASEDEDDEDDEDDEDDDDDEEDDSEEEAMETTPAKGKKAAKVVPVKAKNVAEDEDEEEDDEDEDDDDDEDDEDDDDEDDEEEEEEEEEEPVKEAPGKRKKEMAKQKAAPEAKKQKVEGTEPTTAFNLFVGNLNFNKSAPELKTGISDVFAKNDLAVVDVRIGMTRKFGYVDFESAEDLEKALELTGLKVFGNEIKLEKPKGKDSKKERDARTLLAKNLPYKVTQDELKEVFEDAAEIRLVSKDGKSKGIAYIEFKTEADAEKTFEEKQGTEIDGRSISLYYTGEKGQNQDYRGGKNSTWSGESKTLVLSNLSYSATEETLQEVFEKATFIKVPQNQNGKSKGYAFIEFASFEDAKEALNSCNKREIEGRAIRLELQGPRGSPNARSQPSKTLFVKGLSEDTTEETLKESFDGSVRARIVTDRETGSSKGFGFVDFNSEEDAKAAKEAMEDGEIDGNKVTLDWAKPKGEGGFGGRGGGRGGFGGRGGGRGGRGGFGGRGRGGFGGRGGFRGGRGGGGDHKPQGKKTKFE

In the case of CCTCCTCCTCCTTCTCCTCCTCCTCC (ssDNA) [CRO], the binding result in series [1] and in series [2] was “no binding” each time.

Consider AGATTAGGGTGAGGGTGA (ssDNA) [iSN04], for which the binding result in series [1] (weak G4 only with K+) is recorded as “binds”; in series [3], “no binding”.
